This note sets out measurements from patent US20190328887A1.

The test addresses human oxytocin receptor (human) (UniProt P30559).
Sequence of UniProt P30559 (P30559 whole entry): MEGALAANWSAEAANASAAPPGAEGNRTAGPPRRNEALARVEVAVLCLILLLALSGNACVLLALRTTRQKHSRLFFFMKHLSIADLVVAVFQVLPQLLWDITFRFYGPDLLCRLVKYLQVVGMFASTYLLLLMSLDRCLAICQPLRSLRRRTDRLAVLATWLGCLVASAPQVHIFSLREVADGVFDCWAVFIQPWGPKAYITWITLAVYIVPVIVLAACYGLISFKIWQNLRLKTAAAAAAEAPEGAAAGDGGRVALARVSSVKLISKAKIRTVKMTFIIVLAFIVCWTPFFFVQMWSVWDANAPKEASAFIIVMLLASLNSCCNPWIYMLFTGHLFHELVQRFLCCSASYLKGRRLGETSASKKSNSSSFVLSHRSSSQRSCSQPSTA

For Oxytocin (peptide), the EC50 Ca2+ production is 42 nM.
